According to patent US12404336 (dated 2025):

B1: 2L2A.1 (antibody, V domains shown)
VH: QVQLVQSGAEVKKPGASVKVSCKASGYTLTDYYMNWMRQAPGQGLEWMGVINPYNGDTSYNQKFKGRVTMTRDTSTSTVYMELSSLRSEDTAVYYCVRDDGYYVHYFDYWGQGTLVTVSS
VL: DIQMTQSPSSLSASVGDRVTITCRASQDISSRLTWLQQEPEKAPKRLIYATSSLDSGVPKRFSGSGSGTDFTLTISSLQPEDFATYYCLQYASSPLTFGGGTKVEIK
B2: chimeric 2L2A antibody (antibody, V domains shown)
VH: EVQLQQSGPVLVKPGASVKMSCKASGYTLTDYYMNWMKQSHGKSLEWIGVINPYNGDTSCNQKFKGKATLTADKSSSTAYMELNSLTSDDSAVYYCVRDDGYYVHYFDYWGQGTTLTVSS
VL: DIQMTQSPSSLSASLGERVTLTCRASQDISSRLTWLQQEPDGTIKRLIYATSSLDSGVPKRFNGSRSGSDYSLTISSLESEDFVDYYCLQYASSPLTFGAGTKLELKR
B3: Bi-TPM-94A (antibody)
chain 1: not shown
chain 2: DIQMTQSPSFLSASVGDRVTITCKASQNVGTNVAWYQQKPGKAPKALIYSASYRYSGVPSRFSGSGSGTEFTLTISSLQPEDFATYYCQQYYSYPYTFGQGTKLEIKRTVAAPSVFIFPPSDEQLKSGTASVVCLLNNFYPREAKVQWKVDNALQSGNSQESVTEQDSKDSTYSLSSTLTLSKADYEKHKVYACEVTHQGLSSPVTKSFNRGEC
B4: Bi-TPM-94B (antibody)
chain 1: not shown
chain 2: B3 chain 2
B5: Bi-LT-1 (antibody)
chain 1: not shown
chain 2: DIQMTQSPSSLSASVGDRVTITCRASQDISSRLTWLQQKPEKAPKRLIYATSSLDSGVPSRFSGSGSGTDFTLTISSLQPEDFATYYCLQYASSPLTFGGGTKVEIKRTVAAPSVFIFPPSDEQLKSGTASVVCLLNNFYPREAKVQWKVDNALQSGNSQESVTEQDSKDSTYSLSSTLTLSKADYEKHKVYACEVTHQGLSSPVTKSFNRGEC
B6: Bi-LT-3 (antibody)
chain 1: not shown
chain 2: B5 chain 2

Assays:
[1] = target: T1, human LAG-3 on CHO-K1 cells (human, UniProt P18627 23-525); test: flow cytometry binding
T1 chain: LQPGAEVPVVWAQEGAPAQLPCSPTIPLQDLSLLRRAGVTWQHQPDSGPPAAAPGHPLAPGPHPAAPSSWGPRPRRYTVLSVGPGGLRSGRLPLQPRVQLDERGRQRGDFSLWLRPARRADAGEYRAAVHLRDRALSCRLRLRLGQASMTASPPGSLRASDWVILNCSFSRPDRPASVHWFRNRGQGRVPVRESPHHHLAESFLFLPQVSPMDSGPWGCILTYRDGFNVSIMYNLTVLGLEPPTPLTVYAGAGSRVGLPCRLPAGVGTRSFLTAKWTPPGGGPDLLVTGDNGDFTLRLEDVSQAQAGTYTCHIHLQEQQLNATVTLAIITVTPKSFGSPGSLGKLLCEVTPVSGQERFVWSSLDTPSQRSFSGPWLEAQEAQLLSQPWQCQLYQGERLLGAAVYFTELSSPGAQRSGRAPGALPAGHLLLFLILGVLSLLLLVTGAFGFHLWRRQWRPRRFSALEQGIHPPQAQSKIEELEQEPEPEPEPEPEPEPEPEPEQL

[2] = target: T2, human LAG-3 fused to mouse IgG2a (huLAG-3-mIgG2a) (human, UniProt P18627 23-450); test: SPR
T2 chain: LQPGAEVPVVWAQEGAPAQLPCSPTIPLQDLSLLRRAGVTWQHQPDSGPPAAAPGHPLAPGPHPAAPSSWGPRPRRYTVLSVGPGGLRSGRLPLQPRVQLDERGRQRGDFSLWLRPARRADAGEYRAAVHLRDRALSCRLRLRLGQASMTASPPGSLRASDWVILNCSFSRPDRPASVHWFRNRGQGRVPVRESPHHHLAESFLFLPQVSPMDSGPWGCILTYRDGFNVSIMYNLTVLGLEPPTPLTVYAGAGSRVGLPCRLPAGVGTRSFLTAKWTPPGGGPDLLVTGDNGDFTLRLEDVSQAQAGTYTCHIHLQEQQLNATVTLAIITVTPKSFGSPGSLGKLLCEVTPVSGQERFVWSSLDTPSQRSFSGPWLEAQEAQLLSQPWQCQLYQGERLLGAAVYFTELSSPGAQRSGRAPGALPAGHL

[3] = target: T2, human LAG-3 fused to mouse IgG2a …; test: cell-based blocking of LAG-3-muFc binding to MHC on Raji cells
His tagged human LAG-3 = target: T3, His tagged human LAG-3 (human, UniProt P18627 23-450); test: SPR
T3 chain: T2 chain

[4] = target: His tagged human PD-1 protein (human, UniProt Q15116 25-167); test: BLI
Chain of His tagged human PD-1 protein (Q15116 25-167): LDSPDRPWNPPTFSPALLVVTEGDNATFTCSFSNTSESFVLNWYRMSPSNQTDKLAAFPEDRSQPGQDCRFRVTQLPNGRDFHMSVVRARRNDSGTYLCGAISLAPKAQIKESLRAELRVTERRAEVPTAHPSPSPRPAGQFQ

[5] = target: T4, His tagged human TIGIT protein (human, UniProt Q495A1 22-141); test: BLI
T4 chain: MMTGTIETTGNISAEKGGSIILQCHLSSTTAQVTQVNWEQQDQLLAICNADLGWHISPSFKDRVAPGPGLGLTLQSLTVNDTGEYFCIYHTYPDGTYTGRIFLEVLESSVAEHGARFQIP

[6] = target: T5, human TIGIT on transfected CHOK1 cells (human, UniProt Q495A1 22-244); test: cell-based blocking of TIGIT/PVR
T5 chain: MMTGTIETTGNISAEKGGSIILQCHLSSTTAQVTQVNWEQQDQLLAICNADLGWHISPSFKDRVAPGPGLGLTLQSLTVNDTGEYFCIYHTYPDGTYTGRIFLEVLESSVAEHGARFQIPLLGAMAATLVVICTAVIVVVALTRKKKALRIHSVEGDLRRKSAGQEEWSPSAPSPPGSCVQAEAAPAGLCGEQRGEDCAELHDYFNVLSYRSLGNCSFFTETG

[7] = target: T4, His tagged human TIGIT protein; test: sandwich ELISA; simultaneous binding of LAG-3-muFc and His-tagged TIGIT
[8] = target: T2, human LAG-3 fused to mouse IgG2a …; test: cell-based blocking of LAG-3/MHC II

Binder | IC50 [3] [nM] | Kd [4] [nM] | IC50 [6] [nM] | EC50 [7] [µg/mL] | IC50 [8] [nM] | further results
B1 | 1.97 |  |  |  |  | EC50 [1]: 1.48 nM; Kd [2]: 0.001 nM; Kd (His tagged human LAG-3): 1.42 nM
B2 | 3.74 |  |  |  |  | 
B3 |  | 2.9 |  |  |  | 
B4 |  | 2.7 | 0.13 |  |  | Kd [5]: 1.7 nM
B5 |  |  | 0.24 | 0.0107 | 0.7 | 
B6 |  |  | 0.22 | 0.0108 | 0.9 | 
